Data as given in US6838262.

Biological target: human RANK, full length, expressed in or on cells (human) (UniProt Q9Y6Q6)
Test: cell-based or functional assay

Chain of UniProt Q9Y6Q6 (Q9Y6Q6 26-616): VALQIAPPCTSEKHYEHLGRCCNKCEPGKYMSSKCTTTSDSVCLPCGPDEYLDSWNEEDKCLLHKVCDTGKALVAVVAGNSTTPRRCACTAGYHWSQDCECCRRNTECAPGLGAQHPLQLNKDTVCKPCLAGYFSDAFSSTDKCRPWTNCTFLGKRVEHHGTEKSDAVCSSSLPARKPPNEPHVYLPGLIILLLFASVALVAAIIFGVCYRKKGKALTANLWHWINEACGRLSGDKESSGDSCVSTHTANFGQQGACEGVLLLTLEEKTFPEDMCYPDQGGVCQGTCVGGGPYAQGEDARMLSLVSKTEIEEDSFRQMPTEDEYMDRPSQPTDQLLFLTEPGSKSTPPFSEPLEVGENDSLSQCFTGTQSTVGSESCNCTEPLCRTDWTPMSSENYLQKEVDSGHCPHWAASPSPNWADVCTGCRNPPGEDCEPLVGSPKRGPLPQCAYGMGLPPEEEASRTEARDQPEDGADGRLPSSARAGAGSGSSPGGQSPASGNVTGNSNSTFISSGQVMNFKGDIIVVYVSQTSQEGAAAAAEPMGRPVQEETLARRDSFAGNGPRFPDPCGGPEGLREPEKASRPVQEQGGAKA

Substance “RANKL as added to human dendritic cell cultures (Example 13; species and construct not stated) (ligand)” has an allo-stimulatory capacity of CD1a+ DC in a mixed lymphocyte reaction (MLR) greater than 10 fold.
